For data set [1], the target named is T1, Znf706 (Homo sapiens, UniProt Q9Y5V0 1-76).
T1 sequence: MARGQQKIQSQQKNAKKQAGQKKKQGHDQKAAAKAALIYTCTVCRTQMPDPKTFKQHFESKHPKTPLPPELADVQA
As to the kind of experiment: NMR; 37 C; FP/anisotropy: 20 mM NaPi, 100 mM KCl, 0.05% NaN3, pH 7.4, 25 C (LiCl variant: 20 mM Tris-HCl, 100 mM LiCl, pH 7.4; NaCl variant: 20 mM NaPi, 100 mM NaCl, pH 7.4); NMR: 20 mM NaPi, 100 mM KCl, 7.5% D2O, pH 7.4, 4-50 C. Particulars: protein: recombinant; tags: none (His6-SUMO cleaved); chain copies: 2; hairpin.

A further data set deals with T2, Znf706 A2C-AF488 (Homo sapiens, UniProt Q9Y5V0 1-76, A2C).
T2 sequence: T1 sequence with A2C
Kind of data set: fluorescence anisotropy; FP/anisotropy: 20 mM NaPi, 100 mM KCl, 0.05% NaN3, pH 7.4, 25 C (LiCl variant: 20 mM Tris-HCl, 100 mM LiCl, pH 7.4; NaCl variant: 20 mM NaPi, 100 mM NaCl, pH 7.4); NMR: 20 mM NaPi, 100 mM KCl, 7.5% D2O, pH 7.4, 4-50 C. Particulars: protein: recombinant, tags: none (His6-SUMO cleaved), AF488 label.

A further data set deals with T3, Znf706 A2C-MTSL (Homo sapiens, UniProt Q9Y5V0 1-76, A2C).
T3 sequence: T1 sequence with A2C
Kind of data set: PRE NMR; 2:1 protein:DNA, 100 mM KCl, 4 C; FP/anisotropy: 20 mM NaPi, 100 mM KCl, 0.05% NaN3, pH 7.4, 25 C (LiCl variant: 20 mM Tris-HCl, 100 mM LiCl, pH 7.4; NaCl variant: 20 mM NaPi, 100 mM NaCl, pH 7.4); NMR: 20 mM NaPi, 100 mM KCl, 7.5% D2O, pH 7.4, 4-50 C. Particulars: protein: recombinant; tags: none (His6-SUMO cleaved); MTSL spin label; parallel G4.

The target of data set [2] is T4, Znf706 N-terminal peptide (Homo sapiens, UniProt Q9Y5V0 1-35).
T4 chain: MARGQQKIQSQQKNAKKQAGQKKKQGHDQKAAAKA
As to the kind of experiment: fluorescence polarization; 100 mM KCl; range over three G4s; FP/anisotropy: 20 mM NaPi, 100 mM KCl, 0.05% NaN3, pH 7.4, 25 C (LiCl variant: 20 mM Tris-HCl, 100 mM LiCl, pH 7.4; NaCl variant: 20 mM NaPi, 100 mM NaCl, pH 7.4); NMR: 20 mM NaPi, 100 mM KCl, 7.5% D2O, pH 7.4, 4-50 C. Particulars: label: 5' 6-FAM.

Data set [3] concerns the target T1, Znf706. Kind of data set: fluorescence polarization; 100 mM KCl; range over all G4s; less strong; exact value in figure; FP/anisotropy: 20 mM NaPi, 100 mM KCl, 0.05% NaN3, pH 7.4, 25 C (LiCl variant: 20 mM Tris-HCl, 100 mM LiCl, pH 7.4; NaCl variant: 20 mM NaPi, 100 mM NaCl, pH 7.4); NMR: 20 mM NaPi, 100 mM KCl, 7.5% D2O, pH 7.4, 4-50 C. Particulars: protein: recombinant; tags: none (His6-SUMO cleaved); chain copies: 2; label: 5' 6-FAM; hybrid G4.

In data set [4] the target is T1, Znf706. Kind of data set: MST; range over all G4s; less strong; exact value in figure; FP/anisotropy: 20 mM NaPi, 100 mM KCl, 0.05% NaN3, pH 7.4, 25 C (LiCl variant: 20 mM Tris-HCl, 100 mM LiCl, pH 7.4; NaCl variant: 20 mM NaPi, 100 mM NaCl, pH 7.4); NMR: 20 mM NaPi, 100 mM KCl, 7.5% D2O, pH 7.4, 4-50 C. To be noted: protein: recombinant; tags: none (His6-SUMO cleaved); chain copies: 2; label: 5' 6-FAM; hybrid G4.

Data set [5] concerns the target T1, Znf706. As to the kind of experiment: NMR; competitive titration with Bcl2SH G4; FP/anisotropy: 20 mM NaPi, 100 mM KCl, 0.05% NaN3, pH 7.4, 25 C (LiCl variant: 20 mM Tris-HCl, 100 mM LiCl, pH 7.4; NaCl variant: 20 mM NaPi, 100 mM NaCl, pH 7.4); NMR: 20 mM NaPi, 100 mM KCl, 7.5% D2O, pH 7.4, 4-50 C. To be noted: protein: recombinant; tags: none (His6-SUMO cleaved); chain copies: 2; blunt.

For data set [6], the target named is T1, Znf706. Kind of data set: fluorescence polarization; 100 mM KCl; range over all G4s; strong; exact value in figure; FP/anisotropy: 20 mM NaPi, 100 mM KCl, 0.05% NaN3, pH 7.4, 25 C (LiCl variant: 20 mM Tris-HCl, 100 mM LiCl, pH 7.4; NaCl variant: 20 mM NaPi, 100 mM NaCl, pH 7.4); NMR: 20 mM NaPi, 100 mM KCl, 7.5% D2O, pH 7.4, 4-50 C. Particulars: protein: recombinant; tags: none (His6-SUMO cleaved); chain copies: 2; label: 5' 6-FAM; parallel G4. (In general: Polarisation of emitted light reports the rotation of a fluorescent probe.)

Data set [7] deals with T1, Znf706. Kind of data set: MST; range over all G4s; weakest; exact value in figure; FP/anisotropy: 20 mM NaPi, 100 mM KCl, 0.05% NaN3, pH 7.4, 25 C (LiCl variant: 20 mM Tris-HCl, 100 mM LiCl, pH 7.4; NaCl variant: 20 mM NaPi, 100 mM NaCl, pH 7.4); NMR: 20 mM NaPi, 100 mM KCl, 7.5% D2O, pH 7.4, 4-50 C. Particulars: protein: recombinant; tags: none (His6-SUMO cleaved); chain copies: 2; label: 5' 6-FAM.

The target of data set [8] is T1, Znf706. Kind of data set: NMR; 100 mM KCl; FP/anisotropy: 20 mM NaPi, 100 mM KCl, 0.05% NaN3, pH 7.4, 25 C (LiCl variant: 20 mM Tris-HCl, 100 mM LiCl, pH 7.4; NaCl variant: 20 mM NaPi, 100 mM NaCl, pH 7.4); NMR: 20 mM NaPi, 100 mM KCl, 7.5% D2O, pH 7.4, 4-50 C. Particulars: protein: recombinant; tags: none (His6-SUMO cleaved); chain copies: 2; hairpin.
Data set [9] addresses T1, Znf706. Kind of data set: MST; range over all G4s; strong; exact value in figure; FP/anisotropy: 20 mM NaPi, 100 mM KCl, 0.05% NaN3, pH 7.4, 25 C (LiCl variant: 20 mM Tris-HCl, 100 mM LiCl, pH 7.4; NaCl variant: 20 mM NaPi, 100 mM NaCl, pH 7.4); NMR: 20 mM NaPi, 100 mM KCl, 7.5% D2O, pH 7.4, 4-50 C. Particulars: protein: recombinant; tags: none (His6-SUMO cleaved); chain copies: 2; label: 5' 6-FAM; parallel G4.

Residue numbers refer to the chain shown, from its start.

As a reminder, the Kd is the concentration at which binding is half-saturated.

B1: GGGG hairpin (structured_DNA)
DNA: GGTTGGGGTTGTTTTCAACCCCAACC
Take B1: the binding result with Znf706 [1] was “no binding”.

B2: cMyc (Pu19_A2A11) (structured_DNA)
DNA: TAGGGAGGGTAGGGAGGGT
With B2, the binding result with Znf706 A2C-AF488 (parallel G4) and with Znf706 A2C-MTSL was “binds” throughout.

B3: Bcl2WT, 6-FAM (structured_DNA)
DNA: GGGCGCGGGAGGAAGGGGGCGGG
Take B3: the figures for the Kd (in data set [2] (hybrid G4); with Znf706 [3]) were around 17.2 µM and around 4.47 µM, respectively.

B4: hTel, 6-FAM (structured_DNA)
DNA: TTGGGTTAGGGTTAGGGTTAGGGA
As to B4, in the data set with Znf706 [4], the Kd is around 4.47 µM.

B5: Bcl2SH duplex (dsDNA)
DNA 1: AGGAGGGGGGCGGGA
DNA 2: TCCCGCCCCCCTCCT
Take B5: in the data set with Znf706 [5], the binding result was “no binding”.

B6: cMyc (Pu19_A2A11), 6-FAM (structured_DNA)
DNA: TAGGGAGGGTAGGGAGGGT
With B6, the Kd is around 17.2 µM in data set [2] (parallel G4) and around 4.47 µM with Znf706 [6].

B7: Kit*, 6-FAM (structured_DNA)
DNA: GGCGAGGAGGGGCGTGGCCGGC
Regarding B7, the Kd in the data set with Znf706 [7] was around 4.47 µM.

B8: Bcl2SH, 6-FAM (structured_DNA)
DNA: AGGAGGGGGGCGGGA
Take B8: the values for the Kd (in data set [2] (parallel G4); with Znf706 [6]) were around 17.2 µM and around 4.47 µM, respectively.

B9: GGA hairpin (structured_DNA)
DNA: GGAAGGAAGGTTTTCCTTCCTTCC
On to B9, for which the binding result with Znf706 [8] is listed as “no binding”.

B10: G4C2 4-repeat (structured_DNA)
DNA: GGGGCCGGGGCCGGGGCCGGGGCC
As for B10, in the data set with Znf706 A2C-AF488, the binding result is “binds”.

B11: TERRA, 6-FAM (structured_RNA)
RNA: UAGGGUUAGGGUUAGGGUUAGGG
Take B11: the Kd with Znf706 [9] was around 4.47 µM.
